Results reported in patent publication US10369187B2, “Peptide regulators of JNK family kinases” (Vanderbilt University, priority 2017, dated 2019).

Tests used:
MKK7-JNK3 module = assay: JNK3 phosphorylation by co-expressed MKK7 in cells; format: cell-based, African green monkey; conditions: YFP-T1A co-expressed with MKK7 in COS7 cells
Experimental: To test whether T1A can promote JNK3 phosphorylation by MKKs in cells, MKK4 or MKK7 was co-expressed with YFP-T1A in COS7 cells, using YFP and full-length arrestin-3 as negative and positive controls, respectively (FIG. 2C).
COS-7 African green monkey cells were maintained in DMEM supplemented with 10% heat-inactivated FBS (Invitrogen), penicillin, and streptomycin at 37° C. in a humidified incubator with 5% CO2. The cells were plated at 80-90% confluence and transfected using Lipofectamine 2000 (Invitrogen) according to the manufacturer's instructions. Cells were used 48 h post-transfection and serum-starved overnight before experiments.
COS-7 cells were incubated with phosphatase inhibitors (50 mM NaF and 10 mM Na3VO4) in serum-free medium for 15 min at 37° C.; washed with cold PBS; and lysed with SDS lysis buffer containing 1% SDS, 10 mM Tris (pH7.4), 10 mM NaF, 100 μM Na3VO4, 2 mM EDTA, 2 mM benzamidine and 1 mM PMSF. JNKs activity was assayed by Western blotting using an antibody specific for phosphorylated JNK to detect phosphorylated (active) JNKs^17,20,23. […] Protein was measured using the Bio-Rad Coomassie Blue assay. […] Protein bands were detected by enhanced chemiluminescence (ECL, Pierce), followed by exposure to x-ray film. To quantify phospho-JNKs, serial dilutions of anisomycin (1 μg/ml)-stimulated HEK-A cell lysates were used to ensure that all samples were in linear range. […]

JNK3 [1] = biological target: T1, JNK3 (Homo sapiens, UniProt P53779); conditions: earlier work, reference 23; cited from earlier work
T1 sequence (P53779 whole entry, species assumed, the tested form may be a part): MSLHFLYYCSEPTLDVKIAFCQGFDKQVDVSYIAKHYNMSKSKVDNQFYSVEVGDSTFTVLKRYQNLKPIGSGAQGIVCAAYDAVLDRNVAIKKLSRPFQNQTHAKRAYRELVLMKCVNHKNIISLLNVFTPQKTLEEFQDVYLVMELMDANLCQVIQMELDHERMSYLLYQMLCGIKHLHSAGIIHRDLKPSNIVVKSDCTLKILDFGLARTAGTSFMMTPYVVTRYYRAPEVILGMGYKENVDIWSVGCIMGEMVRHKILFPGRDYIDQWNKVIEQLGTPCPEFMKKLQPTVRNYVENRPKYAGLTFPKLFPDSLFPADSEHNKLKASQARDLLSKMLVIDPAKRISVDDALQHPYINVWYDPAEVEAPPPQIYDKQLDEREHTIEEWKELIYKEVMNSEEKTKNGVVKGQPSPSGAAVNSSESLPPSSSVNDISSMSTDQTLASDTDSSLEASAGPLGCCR

JNK3 [2] = biological target: T1, JNK3; assay: MBP pull-down of purified JNK3; format: binding; conditions: MBP-fusions, compared with T1A
Experimental: FIG. 5. […] Residues that differ between T1A and B1A are shown in magenta. b, c, d) Pull-down of purified JNK3 (b), MKK4 (c), and MKK7 (d) by MBP (negative control), MBP-arrestin-3 (positive control), MBP-T1A, and MBP-B1A, was performed, as described in Methods. Lower panels, Coomassie gels of loaded MBP-fusions; middle panels, Western blots of retained JNK3 (b), MKK4 (c), and MKK7 (d); upper panels, quantification of Western blots from 3-4 independent experiments. […] T1A sequence shown is SEQ ID NO:1. B1A sequence shown is SEQ ID NO:6.
To test the specificity of T1A action, its ability to bind purified MKK4, MKK7, and JNK3 was compared with that of B1A, a homologous N-terminal peptide from closely related arrestin-2, which differs from T1A only in four positions (FIG. 5). […] To test whether this difference in binding translates into differential activity in cells, the ability of YFP-T1A and YFP-B1A to facilitate JNK3 activation were compared in cells over-expressing ASK1, using YFP-arrestin-3 and YFP as positive and negative controls, respectively.
To make MBP-fusions containing arrestin-2/3 elements, the cDNAs encoding arrestin fragments were subcloned into pMal-p2T (generous gift from Dr. Keiji Tanaka, Tokyo Institute of Medical Science) between Eco RI and Xho I sites in frame with MBP, as described^23. […] Eluates were analyzed by SDS-PAGE and Western blotting.

| binding of JNK3 in MBP pull-down (JNK3 [2]) | Substance | JNK3 phosphorylation by MKK7 in cells (MKK7-JNK3 module) | JNK3 binding element of arrestin-3 (JNK3 [1]) |
| --- | --- | --- | --- |
| – | MGEKPGTRVFKKSSPNCKLTVYLGK (bovine) [T1A, first 25 residues of arrestin-3] | necessary and sufficient to promote the signaling | key interaction site |
| less robust interaction | MGDK-GTRVFKKASPNGKLTVYLGK (MGDKGTRVFKKASPNGKLTVYLGK; N-terminal MGDK; bovine) [B1A, homologous N-terminal peptide from arrestin-2, negative control] | – | – |
